# Data reported in the domain aggregation screens of Martell et al. (2025).
# Test: soluble fraction after stress (log2 fold change); higher = more stays soluble; pooled small domains, quantitative proteomics
# Conditions: stress: 75 degC
# 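Note: 20 min heating vs room temperature control held 20 min.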
row,Sequence,soluble fraction (log2)
1,HMVDERMVTYINSLDKGNTPFLNELEKEALANYVPIIRREMQSFLKVLLQIKAPLRILEVGTAVGFSTILM,0.0501
2,HMVDGAHKQQAAVQALTPALKVLAAAPEGKKGQAIQALRAVLKQHGRWLDDATAQQVHEQLLAAGDAQGWQ,0.478
3,HMVDIGQSIRVELIREGKDSHQAVGYLRDGSMVVVNHGRKLIGSTVEVEITSIVPSSAGKVIFAEYLE,-2.67
4,HMVDIQTGQKVRIHTSQFAGKIGNITALNVKSAELPNGIRTATASILMQSNENVMLPVSNFDIIE,-0.0419
5,HMVDIVLDILKIVAEKQPGNQFSQSILMQYQERGGLSKKQLEGLYGKAKRIPEIPQNKLATLEAIILR,-1.84
6,HMVDKNDLTAIDGIGPFLEKKLNDVGVFTYADIAGWDAAKIEEITQQISFFEGRIEKDDWVGQAQKLIDDQ,-0.124
7,HMVDKSYIHNQQVASDTWTVQHNLGKYPAVSVADTGNNEVYGDVRHINENTVELKFSHPFSGVAFF,0.61
8,HMVDKTMYDRYAVDDYVRVIDGPLVGTEGRIIELDRETGNVKIEAVFFGRVTTADINFALIEKVD,-0.717
9,HMVDLDIENYELEDILNLFRLQYNFVEADLKRAYRMALKLHPDKSGLDGEYFRFYMKAYKIVENIFNFRNR,-1.5
10,HMVDSVIGSVGRVTVDIDNVEALGQVKLGGMEWSARSTSGDPIPAGTEVRVDRVEGVKVFVTPV,-0.117
11,HMVDVEMLTTVSDHIEAKLLQGILENHGIPSYSVDEESGEYMRVYMGYSIFGEKIYVRASDLLAAQGYL,-2.23
12,HMVDWTFPVLVKDVVMMGRYGHMGFLRIPGKKDFESVDNALAKVGMVEYAKQQIGELSGGQR,-0.019
13,HMVDYSMEDSVWNNKKEHVNEWFDANPEHEGRRVIVDGLFAIGDAQPDLRKRHWSSISVVFADLDNSPIG,-0.327
14,HMVEDPADNQKAADAVIKKISEIGEVTESSENLIKEARASYDALTDNQKELVTNYDVLVQAEAQLENIKD,0.282
15,HMVEEVDYGTFMRMIEEKNIGKVEVRAGEIVFTDKDEKQIYKTGAMEDATLTQRLYESGAEFSKDV,-0.0507
16,HMVEGVSLVEIYVDENSKYNGKLLSEIPKKENTLVIMIQRGEQVIIPHGNIRLESGDMLVVSKTEI,-2.71
17,HMVEKNALSEEIEGYVNKYGKDRSSLMPVLQAIQRKHSYINDFAQQEVARLLDIHPVEVFSVISFYSFLH,-2.21
18,HMVEKRLFPQISDAGKRLDLFLAGALAISRTMVVKIIKDGGVLVNGKAAKASYRLAGDEELLVSYEEP,-3.48
19,HMVEMPEVGVKVRIEVESHNGSTNFEGIVLHPASKGHLTLKLINGYNASYLIEEIRNLEIIDSS,-1.64
20,HMVENATPEEREALNDIAMEAMGMVKDGKPTSAREFVQSQNLDNDQKILLWSLLDAPTRSALKTAEK,0.373
21,HMVEPIKAPMPGMVLKILVEPGQQIEKGQGVLILEAMKMENVLKSSAAATVKSIKVSEKSAVEKGAILVEL,-0.463
22,HMVEQVEISILPGEYSDTISQKLLDAGLIDDKAAFSKYINDTNVDNLIQPGTFTVPKGASYEEVAKILT,0.214
23,HMVERRVRFTVAPGNAGLRLDLFLTAREIGLSRTQVGRAVDEGQIQVNGRPGRAGRKLKTGDVVAIVLPA,-1.13

row,Sequence,soluble fraction (log2)
1,HMVESLTDRELQILSLAAKGYTNKAIAVQLGISDRTVQNHLANTFQKLNAESRTEAVMRAVSLGLISA,-0.542
2,HMVETVQVVGAGQDIMPGSRINYSSLHYITVPRSYFHEDMFAKNNLVVGRIARAYVAKGEPLLAASLMPK,-2.29
3,HMVEVPYSEFLKELDAGNVKDVYVSNGESQIQFTKKDQKQWNLSYKTGPIPGDDLVKRLQNADVENFT,0.109
4,HMVEVTTDEITRPGAMVSGSVTFSDGVKAIWLIDEYGRPGLEPETPGYQPSESDLSEFEKHLRALLQ,0.362
5,HMVEVVDAEKLEERLSKVFSAAVLLEIYNENPAHGKEYAYLFTARKNAVEEMIENGQMKRETWEAK,-0.987
6,HMVFSKEELLFNSDSLLSLYPNDNKLLETILSEKIDHAVKNNDMSMYKEILVIDPKNPLANYHLLM,0.354
7,HMVFTEEERAEYREKMLDAGFDLLKQYGMTHMSVAKITEAAGIGVSTFYNFFSSKEEYVYEVLQYRRRK,-1.3
8,HMVGIVQKTFEPTGIAAEELMKTLKSDKSLDFGNVQILATPKSSTSRQVVVVSGRANDVDRVMMVLSNLDS,-0.326
9,HMVGKIVVPHLEGKPAEMARDILARDGFKSVHEEVLPSAEFGAGRVVRTEPHAGTNVAKTDPVTIFVSVGL,-0.268
10,HMVGLTDLQRNVLVQIARGKSRQLISRTLKVTPAEISAALKVAQRRYRVASSTEVIVQALYDKTLSFHEIM,-0.707
11,HMVIIPNILNKYKGLAFRQLEQVGLKIGDTIYEPNIQRDAVLRMQINGRSVQPGDQVMRFSVVDLVIG,-3.2
12,HMVINKRELNVLSIYSRGSEKRAIILFPTGQTKLVKVGDTLNGGRVAAIGTTEIRYIKGGNNLVLKIPQ,-2.75
13,HMVINVNEIIRRIKELKTFKTDRQVADFLGVSKATVSNWMARNSIDFPLLINKLDGVDLTWLLTGRGTPE,-2.15
14,HMVIPATPTARRAKIAGLLADRSVRSQGELLTLLADAGIEVTQATLSRDLEALGAVKVRDGRGLVYAVPG,-0.32
15,HMVIQRQIPPLVTRMLDGLEQFIQLDMPFDLDTRLGNIEAVRANMDRSDVTSAEAYRQVLELYSIELQ,-0.559
16,HMVISLREINLIGVYGRPNARRALVRLSNGRYVRVEVGSDLDGGKVTAIGDEALNFVKRGRTYAIQLPA,-1.11
17,HMVITPESVKEQVLAIISKSPAQGFNYKQISKRLNINDPSERKMVSDILRELSESGTIEEINKGKYRAKV,0.186
18,HMVKDYIQVTVNKEPVILKGKKDYIFIDIFNYIEFDLTIPKGSLYLLLNGKNAGYHDKLLDGDVIELGW,-2.17
19,HMVKLDDLTGQDKASAEAAISNLGLKYSEQQEYSDEIEEGKVTRTDPGAGSTSLKAGDTVTVYISRGPE,0.905
20,HMVKLSATVKELLDFVIAKKTVTSSNVSKHFDISAQNASGRLKKLHATGLVLGQKEVAESGGLEFVYRS,-0.132
21,HMVKLSDGIVEHIKSLIMAGRLKPGDKLPPEREFAATLGVSRTALREAVRTLSLMGLLDARQGEGTFVSG,-0.135
22,HMVKPQANTIYKEYIKYRANLQNKNEFLSFSEYAKQKHNLEQMSEIMVDANLKEEMLETLKEMS,-0.0266
23,HMVKSDLVGHRFILVEDVTPKLTPKYHYSGINWKLITTDNLVAGTRVEVIQVDVGKFHIKAIK,-1.85

row,Sequence,soluble fraction (log2)
1,HMVKSIDEIYNEAVKSLANEDYDAAKKLFNYLINNFSDPDKFPLSLFWLAEIEFSSSNFDASKNYYMQ,0.0365
2,HMVKSSVTEVISMINALPVTVKPEDKADIISARMAYDTLTEDEKALVTNYEILTAAETRFNELIATT,0.275
3,HMVKTIINGEEKDFDAQDFQTFGDFLKKVIPEGQILKSLKINSKDVPIAFIDELKSATVDENITIEMELA,0.682
4,HMVLAEPLSERELDILRLLAAGDSNKEIAAVLYITEGTVKNHVTNILGKLDARDRTQAALRARELGL,-1.21
5,HMVLGDQTFQSASAPKVFFGGDAAYGPKNIITAVAHGHDAAVSIDRFLHGEDVSKRPGPQVNLVS,0.287
6,HMVLRPDDVEDSLWREWVSHRKAKRAAVTEGVLKTFRQEATKASFTLADAMRKSIDRGWTGFEAEWVARET,-0.299
7,HMVLSPAQVRRALMVSGLFTEARVARQLGVPMDLKQILRIILRNTPPQSAMARELESAIDEIESRNAMRD,-1.7
8,HMVLSTRERMSNILATLKGGHFVNFSDLFTPEEGRLGVVVTFLAMLELIKESLLDIVQHEVLGPIHVKARV,0.00479
9,HMVLTGTIKKYNNERGFGFISTSNFGDVFFHIKDFQKGEQPIPGREVYFEVVKKENKKRAIHVYYSD,-1.95
10,HMVLVSNYGEVVRKARERKGLDHGSLAMKISEKKSIITSVESGNMKPNEKLIKKLENFLNINLM,-1.69
11,HMVMIPDLVGETIEDAKDILEGLGFEVEVRSEFPESDWGRPFARVTSLSPSAGQEVAKGTLVIIRSF,-1.05
12,HMVMLIVMNHTASQADIDKVIEVVSGMGFTAAPIPGGERTAIGVLGNKGYVDDSTIRDLPGVQQAIHVSKP,-1.21
13,HMVMSVGENIAYFRKKLGLTQEMLSERIGVTAQAVSKWENGVTNPDISLLPRISEALGIGIGDLFD,-1.94
14,HMVNAVKFAIEKMPYKYSSLLTLKYVMGYSGKEIAEITGLSETNVRQQLLKGRKLLESMLEE,-2.9
15,HMVNGTPADPYDVLGVESSASPEELRAAWQTLVRQNHPDQLMARGVPLEAVKLAEARLVAINQAWDDLTK,-0.0568
16,HMVNHVGITVSNLERSIQFYEALTGKKIANQDTIGGKRMAQTQGLADTLIKYANLHLDNLNIDLLEYVE,-0.92
17,HMVNIAVMTVSDTRTEADDKSGSLLVSKIEGDGHVLADRAIITDDVPRIIAKLKEWIESPQVDVVVT,-0.0813
18,HMVNINEVEVSRDLAHAKVFVTFVGDRTDEINTQALKVLNAAQGFLRSRIASNNHMRTTPRIHF,-0.567
19,HMVNIPEIAKKFGKSTSEVFEQIQIGEKHEMEHTNDPKKARKIALDHLSDDMDYYKKLKKLG,0.212
20,HMVNLKQVELREHHPWVGHKIKELDISRHTLIVMIRRGDNAIVPNGDTLIKSGDIVFVFSKR,-2.76
21,HMVNPHPVYRSWGLLYVEARDGDSLESIAKEFGFSVKKLAKYNEVPKDYPLEAGDIVYLEKKKK,-1.63
22,HMVNPIDFYLLFRTELQRLAEHPITVDRLTEVTGLNKLQVLDWLKRAEQDGLVKKLNRPTRYQLN,0.233
23,HMVPAMGSLTLIKGGVNLRNAPGGLTIAQLDRGLVLSYTKFVQKDGYTWYLVNSPKGTGYVRSDVVQLGS,-2.58
